The results in this text go back to US20190241648A1 (STATEN BIOTECHNOLOGY B V, published 2019).

By Kd is commonly meant the equilibrium constant for the complex coming apart. A word on the koff: it is the rate constant with which the complex falls apart. By kon is commonly meant a measure of how fast the partners come together. A higher kon goes with faster complex formation.

Assay [1] has as its target T1, human ApoC3 (huApoC3), native protein purified from human serum (human, UniProt P02656 21-99). Briefly: cell-based or functional assay.
Assay [2] has as its target T1, human ApoC3 (huApoC3), native protein …. Briefly: SPR Biacore, huApoC3 on chip, scFv-Fc as analyte. As to the method: This example describes characterization of anti-ApoC3 antibodies regarding their affinity to ApoC3 under neutral conditions using an SPR-based assay using a Biacore 3000 instrument (Biacore AB). Native huApoC3 protein was immobilized on a CM5 chip. The immobilization was performed in accordance with the method provided by Biacore using the NHS/EDC kit (Biacore AB): after activation of the chip, a solution of 60 μg/ml of human ApoC3 in 10 mM acetate buffer with pH of 4.5 was prepared and injected until the surface density reached approximately 1000 RU. Capturing of the human ApoC3 on the streptavidin coated chip (SA) was performed at pH 7.4 in accordance with a method provided by Biacore via injection of 20 μl 10 μg/ml biotinylated human ApoC3 thereby reaching the surface density of approximately 500 RU. […] After the dissociation, the flow cell surfaces were regenerated by injecting 10 μl of 10 mM […]/1 M NaCl and 10 μl of 10 mM glycine at pH1.5. The resulting sensorgrams were analyzed using the BIAevaluation 4.1 software using Langmuir 1:1 binding model to derive binding kinetics. Data was zero adjusted and the reference cell sensorgrams were subtracted.
A number of scFv-Fc antibodies were examined in this assay. The association rate (ka), dissociation rate (kd), analyte binding capacity (Rmax), equilibrium association constant (KA) and equilibrium dissociation constant (KD) of these antibodies are shown in Table 5.
In general terms: Surface plasmon resonance follows binding to a sensor surface in real time, without labels.

T1 sequence (P02656 21-99): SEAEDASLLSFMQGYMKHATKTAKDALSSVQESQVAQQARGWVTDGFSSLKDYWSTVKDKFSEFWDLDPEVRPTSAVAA

B1: 8B4 scFv-Fc (Fc fusion)
VH: ELQLVESGGGLVQPGGSLRLSCAASGFTFSNAYLYWVRQVPGKGLEWVSGINPAGDGRAYATSVKGRFTISRDNAKNTLYLQMNTLESDDTAVYYCATASRVVAYDSWGQGTQVTVSS
VL: EIVLTQSPSSVTASVGEKVTINCKSSQSVESGSDQKSYLNWYQQRPGQSPRLLIYYASTQESGIPDRFSGSGSTTDFTLTISSVQPEDAAVYYCQQAYSAPFTFGQGTKVELK
For the molecule B1, in assay [1], the “attenuation of the ability of ApoC3 to inhibit VLDL uptake by HepG2 cells” value is approximately 60%.

B2: 12E12 scFv-Fc (Fc fusion)
VH: EVQLVESGGDLVQPGGSLRVSCAASGLTFSNIYMSWVRQAPGKGLEWVSAINTAGTVTYYADSVKGRFTISRDNAKNTLYLQMNSLKPEDTAHYYCTTGEVDWGKGTLVTVSS
VL: QTVVTQEPSLSVSPGGTVTLTCGLSSGSVTSVTYPGWYQQKPGQAPRTLIYNTNSRFSGVPNRFSGSISGNKAALTITGALPEDEADYYCSVYIGGGIYPAVFGGGTHLTVL
In the case of B2, the “attenuation of the ability of ApoC3 to inhibit VLDL uptake by HepG2 cells” value in assay [1] is approximately 40%.

B3: 8B7 scFv-Fc (Fc fusion)
VH: EVQVQESGPGLVKPSQTLSLTCTVSGASITNRRYAWTWIRQPPGKGLEWMGVIVYDGNTHVSPSLRSRTSISRDTSKNQFSLQLSSLTPEDTAVYYCARVLLLRDPLSLDYWGQGTQVTVSS
VL: SSALTQPPSMSGTLGKTLTISCAGTSSDIGAYNFVSWYQQLPGTAPKLLIYDIDKRASGIPDRFSGSKSGNTASLSISGLQSEDEADYYCAAYGSRDNVVFGGGTHLTVL
notes: scFv-Fc format
In assay [2], B3 displayed a Ka of 4.16e+09 M⁻¹, a Kd of 0.24 nM, an off-rate constant (koff) of 0.000675 s⁻¹ and a kon of 2.81e+06 M⁻¹ s⁻¹.

B4: 5A7 scFv-Fc (Fc fusion)
VH: EVQVQESGPGLVKPSQTLSLTCTVSGASITNRRYAWTWIRQPPGKGLEWMGVIVYDGNTHVSPSLRSRTSISRDTSKNQFSLQLSSLTPEDTAVYYCARVLLLRDPLSLDYWGQGTQVTVSS
VL: SSALTQPPSMSGTLGKTLTISCAGTSSDIGAYNFVSWYQQLPGTAPKLLIYDIDKRASGIPDRFSGSKSGNTASLSISGLQSEDEADYYCAAYGSRDNVVFGGGTHLTVL
notes: scFv-Fc format
In assay [2], B4 displayed a Ka of 2.08e+09 M⁻¹, an equilibrium dissociation constant (Kd) of 0.48 nM, an off-rate (koff) of 0.000647 s⁻¹ and an on-rate constant (kon) of 1.35e+06 M⁻¹ s⁻¹.

B5: 7A9 scFv-Fc (Fc fusion)
VH: EVQVQESGPGLVKPSQTLSLTCTVSGASITNRRYAWTWIRQPPGKGLEWMGVIVYDGNTHVSPSLRSRTSISRDTSKNQFSLQLSSLTPEDTAVYYCARVLLLRDPLSLDYWGQGTQVTVSS
VL: SSALTQPPSMSGTLGKTLTISCAGTSSDIGAYNFVSWYQQLPGTAPKLLIYDIDKRASGIPDRFSGSKSGNTASLSISGLQSEDEADYYCAAYGSRDNVVFGGGTHLTVL
notes: scFv-Fc format
In assay [2], B5 had a Ka of 3.87e+09 M⁻¹, a dissociation constant (Kd) of 0.258 nM, a dissociation rate constant (koff) of 0.00067 s⁻¹ and a kon of 2.59e+06 M⁻¹ s⁻¹.

B6: 14C7 scFv-Fc (Fc fusion)
VH: QVQVQESGPGLVKPSQTLSLTCTVSGGSITTNSYYWSWIRQPPGKGLEWMGAIDYSGDTYYSPSLKSRTSISRDTSKNQFTLQLTSVTPEDTAVYYCVSRIPTGEYWGQGTQVTVSS
VL: QTVVTQEPSLSVSPGGTVTLTCGLNSGSVTSSNYPDWYQQTPGQAPRLLIYNTNSRHSGVPSRFSGSISGNKAALTITGAQPEDEADYYCALYMGSDSVVFGGGTHLTVL
Regarding B6, the “attenuation of the ability of ApoC3 to inhibit VLDL uptake by HepG2 cells” value in assay [1] was approximately 100%.

B7: 13C7 scFv-Fc (Fc fusion)
VH: QLQLVESGGGLVQPGGSLRLSCAASGGTFSRYYMSWVRQAPGKGLEWVSSIYKDGSNTYYADSVKGRFTISRDNAKNTLYLQMNSLKSEDTAVYYCAKALRAEYDYWGQGTQVTVSS
VL: NFMLTQPPSVSGTLGKTVTISCAGTSSDIGGYNYVAWYQQLPGTAPKLLISEVNKRASGIPDRFSGSKSGNTASLSISGLQSEDEADYYCASYRSSNSYVFGGGTKLTVL
For B7, in assay [1], the “attenuation of the ability of ApoC3 to inhibit VLDL uptake by HepG2 cells” value is approximately 95%.

B8: 11H1 scFv-Fc (Fc fusion)
VH: ELQLVESGGGLVQPGGSLRLSCAASGFTFSSYSMRWVRQAPGKGLEWLSSIKSDGSITSYADSVKGRFTMSRDNAKNTLYLQMNSLKSEDTAMYYCTNQGYINWGQGTQVTVSS
VL: ATMLTQSPGSLTIVPGESASISCRASQSLIHSAGKTYFYWLLQKPGQRPQLLIYQVSNRESGVPDRFTGSGSGTDFTLKISGVKAEDAGVYYCAQGTYNPKTFGQGTKLEIK
notes: scFv-Fc format
In assay [2], B8 came in with a Ka of 5.89e+08 M⁻¹, a Kd of 1.7 nM, an off-rate constant (koff) of 0.000207 s⁻¹ and a kon of 122000 M⁻¹ s⁻¹.

B9: 12C3 scFv-Fc (Fc fusion)
VH: ELQLVESGGGLVQPGGSLRLSCAASGFTFSSYSMFWVRQSPGKGLERVSGINGGGDRSNYADSVRDRFTISRDNAKNTLYLQMNSLKSEDTAVYYCVIQGYAYWGQGTQVTVSS
VL: DVVLTQTPASLSVVPGESASISCKASQSLVHSDGKTYLYWLLQKPGQSPQRLIYQTSNRGSGVPDRFTGSGSGTDFTLDISGVKAEDAGVYYCAQATYSPHTFGSGTRLEIK
Consider B9, for which the “attenuation of the ability of ApoC3 to inhibit VLDL uptake by HepG2 cells” value in assay [1] was approximately 85%.

B10: 12D4 scFv-Fc (Fc fusion)
VH: QLQLVESGGGLVQPGGSLRVSCAASGFTFSSSNMRWVRQVSGKGLEWVSTISPDGGKTLYADSVKGRFTISRDNAKNTLHLQMVSLKPEDTALYYCVKAGYDYWGQGTQVTVSS
VL: ATMLTQSPGSLSVVPGESASISCKASQSLVHSDGKTYLYWLLQKPGQSPQRLIYQVSNQGSGVPDRFTGSGSGTDFTLKISGVKAEDAGVYYCAQATYAPHSFGSGTRLEIK
Consider B10, for which the “attenuation of the ability of ApoC3 to inhibit VLDL uptake by HepG2 cells” value in assay [1] is approximately 60%.

B11: 14G4 scFv-Fc (Fc fusion)
VH: QVQLVESGGGLVQPGGSLRLSCAASGFAFSRYTMNWVRQAPGKGLEWLSAISPDGGKTIDADSVKGAFASSRDNTMNTLYLDMNSLKPEDAAVYYCVAGHNMDYWGKGILVTVSS
VL: DVVLTQTPGSLSVVPGESASISCKASQSLVHSDGKTYLYWLLQKPGQSPQRLIYQVSNQGSGVPDRFTGSGSGTDFTLKISGVKAEDAGVYYCAQATYTPRTFGQGTTLEVK
For B11, the “attenuation of the ability of ApoC3 to inhibit VLDL uptake by HepG2 cells” value in assay [1] was approximately 100%.

B12: 12D1 scFv-Fc (Fc fusion)
VH: QLQLVESGGGLVQPGGSLRLSCAASGFTFGTYSMRWVRQVPRKALEWVSSISTDGGGTAYRDSVKGRFTISRDNAKNTLYLQMNNLKPEDTAIYYCVIAGYSDWGQGTQVTVSS
VL: SALDVVLTQTPGSLSVVPGESASISCKTSQSLTHSDGKTYLYWLLQKPGQSPQRLIYQVSNRGSGVPDRFTGSGSGTDFTLKISGVKAEDAGMYYCAQATYYPHTFGSGSRLEIER
Take B12: the “attenuation of the ability of ApoC3 to inhibit VLDL uptake by HepG2 cells” value in assay [1] was approximately 60%.

B13: 12C12 scFv-Fc (Fc fusion)
VH: EVQVQESGPGLVKPSQTLSLTCTVSGGSITTSYYAWTWIRQPPGKGLEWVGAIVYDGSTFYSPSLKSRTSISRDTSKSQFSLQLSSVTPEDTAVYYCARSYGLGLYDLWGQGTQVTVSS
VL: QAVLTQPPSVSGSPGQKFTISCTGSSSNIGDNYVNWYQHLPGTAPKLLIYSNSNRASGVPDRFSGSKSGSSASLTITGLQAEDEADYYCSSWDDSLSGVVFGGGTHLTVL
In the case of B13, the “attenuation of the ability of ApoC3 to inhibit VLDL uptake by HepG2 cells” value in assay [1] is approximately 100%.

B14: 13G7 IgG1 (antibody, V domains shown)
VH: QVQLQESGPGLVKPSQTLSLTCTVSGGSISTTAPAWGWIRQSPGKGLDWMAVIAFDGSAYYSPSLKSRTLISRDTSKNQFSLQLSSVTPEDTAVYYCARLGGRNYPPYVELWGQGTLVTVSS
VL: QPVLTQPPALSVTLGQTAKITCQGGSLRVSYAHWYQQKPGQAPVLVSYDDDSRPSGIPERFSGSGSGATATLTISGAQAEDEGDYYCQSADSSGDNWVFGGGTHLTVL
Take B14: the “EC50, attenuation of ApoC3-mediated LPL inhibition (NEFA production)” value in assay [1] is approximately 3000 nM.

B15: 13G7 scFv-Fc (Fc fusion)
VH: QVQLQESGPGLVKPSQTLSLTCTVSGGSISTTAPAWGWIRQSPGKGLDWMAVIAFDGSAYYSPSLKSRTLISRDTSKNQFSLQLSSVTPEDTAVYYCARLGGRNYPPYVELWGQGTLVTVSS
VL: QPVLTQPPALSVTLGQTAKITCQGGSLRVSYAHWYQQKPGQAPVLVSYDDDSRPSGIPERFSGSGSGATATLTISGAQAEDEGDYYCQSADSSGDNWVFGGGTHLTVL
As for B15, the “attenuation of the ability of ApoC3 to inhibit VLDL uptake by HepG2 cells” value in assay [1] is approximately 100%.

B16: 14C4 scFv-Fc (Fc fusion)
VH: QLQLVESGGGLVQPGGSLRLSCAASGFTFGNYDMSWVRQAPGKGPEWVSVINSDGDGTYYVDSVKGRFTISRDNAKNTLYLQMNSLKPEDRAVYYCAIANLGLWGQGTLVTVSS
VL: ATMLTQSPGSLSVVPGESASISCKATQSLVHSDGKTYLSWLLQKPGQSPQRLIYQVSNRGSGVPDRFTGSGSGTDFTLKISGVKAEDAGVYYCAQAPYWTFGQGTKLEIK
As to B16, the “attenuation of the ability of ApoC3 to inhibit VLDL uptake by HepG2 cells” value in assay [1] was approximately 60%.

B17: 12A3 scFv-Fc (Fc fusion)
VH: ELQLVESGGGLVQSGGSLRLSCAASGFTFSNYAMRWVRQAPGGRLEWVSSINIAGSSVVYADSVKGRFTISRDNAKNTLYLQMNSLKSEDTAVYYCAMQGFVYWGQGTQVTVSS
VL: DVVLTQTPGSLSVVPGESANISCKAGRSLVHSDGRTYLYWLLQKPGQSPQRLIYQVSNRSSGVPDRFTGSGSGTDFTLKITGVKAEDAGVYYCAQGTYYPVTFGQGTKVELK
Turning to B17, in assay [1], the “attenuation of the ability of ApoC3 to inhibit VLDL uptake by HepG2 cells” value was approximately 100%.
